For test [1], the system named is TNF-α. As to the kind of experiment: TNF-α in jugular mucosa (ELISA), 5-FU induced OM in hamsters. It is filed as in vivo, golden Syrian hamsters. To be noted: for TNF-α levels, % Decrease vs G2: G2 = OM + Vehicle. On the procedure:
(§1) To induce OM, animals were administered (except normal control) 5-Fluorouracil (5-FU) by intraperitoneal route at doses of 60 mg/kg & 40 mg/kg respectively on first two days. On Day 4, under anesthesia, with aim of enhancing OM, mechanical irritation of the oral mucosa were done using wire brush. Treatment was initiated from Day 4 to Day 12. For group 3 animals 100 μl of vehicle comprising of standard drug Dexamethasone at 0.1 mg was instilled in buccal cheek pouch. For group 4, 5 and 6 animals 100 μl of vehicle comprising of SEQ ID NO. 2 at 0.25 mg, 0.5 mg & 1 mg, respectively was instilled in buccal cheek pouch. At the end of treatment period, cheek pouch of the hamsters was exposed, Mucositis scoring was carried out and images were captured. The animals were then humanely sacrificed, cheek pouch/jugular mucosa were isolated and used for biomarker estimation and histopathological investigation by using ELISA method and Hematoxylin and Eosin (H&E) staining, respectively.
Further, for biomarker estimation jugular mucosa was dissected out, tissue weighed and stored in ice cold 1×PBS. 100 mg of tissue was taken and in 1 ml of 1×PBS buffer. Supernatant of homogenate was used for analysis of TNF-α and Interleukin-1β using ELISA method as per manufacturers instruction. The levels of TNF-α and Interleukin-1β are given in Table 13, FIG. 2 and Table 14, FIG. 3, respectively.
In general terms: In an ELISA, binding on a coated surface is turned into a signal by an enzyme label.

Test [2] concerns 5-Fluorouracil induced OM. As to the kind of experiment: Mucositis severity score, 5-FU induced OM in hamsters. It is filed as in vivo, golden Syrian hamsters. The following applies: for Mucositis score: after 12 days, scale 0-5. On the procedure:
as §1
Mucositis severity was scored as given below: • Cheek pouch completely healthy—0; Mild erythema—1; • Severe erythema and superficial erosion—2; Formation of ulcers in one or more places—3; Cumulative ulcer formation about 50% of cheek pouch surface area—4; Complete ulceration of the cheek pouch mucosa—5.

[3] abbreviates: hamsters suffering from OM, in words.

B1: SEQ ID NO 2: recombinant lectin, variant of the S. rolfsii lectin amino acid sequence (reported as Rec-2 in WO 2010/095143) (protein)
chain: TYKITVRVYQTNPDAFFHPVEKTVWKYANGGTWTITDDQHVLTMGGSGTSGTLRFHADNGESFTATFGVHNYKRWCDIVTNLAADETGMVINQQYYSQKNREEARERQLSNYQVKNAKGRNFQIVYTEAEGNDLHANLIIG
As to B1, the “TNF-α levels, Mean” value in test [1] (G4, 0.25 mg/Animal) amounted to 153.48 pg/mL; in test [1] (G5, 0.5 mg/Animal), 155.76 pg/mL; in test [1] (G6, 1 mg/Animal) it was 79.37 pg/mL. Also, the “TNF-α levels, % Decrease vs G2” value in test [1] (G4, 0.25 mg/Animal) was −23.77%; in test [1] (G5, 0.5 mg/Animal) it was −25.61%; in test [1] (G6, 1 mg/Animal), 36.00%. For the same molecule, in test [1] (setting [3]), the “levels of TNF-α as compared to the untreated subjects” value is listed as “reduction”. Moreover, the Mucositis score came to 3.00±0.4 in test [2] (G4, 0.25 mg/animal); 2.8±0.3 in test [2] (G5, 0.5 mg/animal); 4.00±0.3 in test [2] (G6, 1 mg/animal). Moreover, the “mucositis score as compared to the untreated subjects” value in test [2] (setting [3]) is “reduction”.

Source of the values: US20250064890A1, “PROTEIN COMPOSITIONS FOR THE TREATMENT OF INFLAMMATORY DISEASES” (Unichem Laboratories Limited, priority 2021, published 2025).
